According to the nanobody polyreactivity screen of Harvey et al. (2022):

Assay: yeast display, Sf9 membrane polyspecificity reagent, FACS + sequencing; frameworks hold sequencing errors
How it was run: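 Genes from sorted yeast were amplified by colony PCR, read by MiSeq 2 × 250 sequencing and filtered on CDR length. These cells carried a synthetic nanobody library in Saccharomyces cerevisiae BJ5465 and were sorted by FACS into low and high (top ~1%) gates on anti-HA and streptavidin fluorescence. Polyreactivity is labelled according to the gate of origin.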

Q: With “QVQLVESGGGLVQAGGSLRLSCAASGSTFAYYAMGWYRQAPGKEREFVAAISSRKDSTYADSVKGRFTLSRDNAKNTVYLQMNSLKPEDTAVYYCAKGPYYWSSSRVRYDYWGQGTQVTVSS” as the sequence, how does the “polyreactivity (PSR sort gate)” value read?
A: high polyreactivity

Q: For “QVQLVESGGGLVQAGGSLRLSCAASGSTFAYYAMGWYRQAPGKERELVAAISASGSRTYYADSVKGRFTISRDNAKNTVYLQMNSLKPEDTAVYYCAALQYRRKIPTAYAGDYWGQGTQVTVSS”, which “polyreactivity (PSR sort gate)” value is on record?
A: high polyreactivity

Q: For “QVQLVESGGGLVQAGGSLRLSCAASGSTFAYYAMGWYRQAPGKERELVAAISYSGGITYYADSVKGRFTISRDNAKNTVYLQMNSLKPEDTAVYYCNKLFAQEFDYWGQGTQVTVSS”, which “polyreactivity (PSR sort gate)” value is on record?
A: high polyreactivity

Q: For “QVQLVESGGGLVQAGGSLRLSCAASGSTFAYYAMGWYRQAPGKERELVAGISGSGGSTYYADSVKGRFTISRDNAKNTVYLQMNSLKPEVTAVYYCAVVQRSKRTYPWYDYWGQGTQVTVSS”, which “polyreactivity (PSR sort gate)” value is on record?
A: low polyreactivity

Q: Which “polyreactivity (PSR sort gate)” value does the source give for “QVQLVESGGGLVQAGGSLRLSCAASGSTFAYYAMGWYRQAPGKERELVAVISVRVGSTYYADSVKGRFTISRDNAKNTVYLQMNSLNPEDTAVYYCATDFFYHSLSSRQDGDYWGQGTQVTVSS” here?
A: high polyreactivity

Q: With “QVQLVESGGGLVQAGGSLRLSCAASGSTFAYYAMGWYRQAPGKEREMVAAISSGGSTYYADSVKGRFTISRDNAKNTVYLQMNSLKPEDTAVYYCNAEVPGHYFDGWYFYDFDYWGQGTQVTVSS” as the sequence, how does the “polyreactivity (PSR sort gate)” value read?
A: low polyreactivity

Q: With “QVQLVESGGGLVQAGGSLRLSCAASGSTFAYYAMVWYRQAPGKERELVAAISTIAGRTYYADSVKGRFTISRDNAKNTVYLQMNSLKPEDTAVYYCAVQFLYVVTLYSDYDYWGQGTQVTVSS” as the sequence, how does the “polyreactivity (PSR sort gate)” value read?
A: high polyreactivity

Q: For “QVQLVESGGGLVQAGGSLRLSCAASGSTFAYYMGWYRQAPGKERELVASISTYYADSVKGRFTISRDNAKNTVYLQMNSLKPEDTAVYYCNKAYYYVFTNYSTALAGDWGQGTQVTVSS”, which “polyreactivity (PSR sort gate)” value is on record?
A: low polyreactivity

Q: Which “polyreactivity (PSR sort gate)” value does the source give for “QVQLVESGGGLVQAGGSLRLSCAASGSTFAYYTMGWYRQAPGKERELVAAITSGGRTSYADSVKGRFTISRDNAKNTVYLQMNSLKPEDTAVYYCAKGRKPGYYYWGQGTQVTVSS” here?
A: high polyreactivity

Q: Which “polyreactivity (PSR sort gate)” value does the source give for “QVQLVESGGGLVQAGGSLRLSCAASGSTFAYYTMGWYRQAPGKERELVAAITSGGRTTYADSVKGRFTISRDNAKNTVYLQMNSLKPEDTAVYYCAKGRKPGYYYWGQGTQVTVSS” here?
A: high polyreactivity

Q: Which “polyreactivity (PSR sort gate)” value does the source give for “QVQLVESGGGLVQAGGSLRLSCAASGSTFCDNAMGWYRQAPGNERELVAAISMSGGRTYYADSVKGRFTISRDNAKNTVYLQMNSLKPEDTAVYYCAAVGNRRYYFGYDYWGQGSQVTVSS” here?
A: high polyreactivity

Q: With “QVQLVESGGGLVQAGGSLRLSCAASGSTFCDNSMGWYRQAPGKERELVAAITTSGTSTYYADSVKGRFTISRDNAKNTVYLQMNSLKPEDTAVYYCAAPYGVARFGDYLDDYDYWGQGTQVTVSS” as the sequence, how does the “polyreactivity (PSR sort gate)” value read?
A: low polyreactivity

Q: With “QVQLVESGGGLVQAGGSLRLSCAASGSTFCDYTMGVYRQAPGKERELLAAISRRGGITYYADSVKGRFTISRDNAKNTVYLQMNSLKPEDTAVYYCNKVYNPKSYIQYDYWGQGTQVTVSS” as the sequence, how does the “polyreactivity (PSR sort gate)” value read?
A: high polyreactivity

Q: With “QVQLVESGGGLVQAGGSLRLSCAASGSTFDAYAMGWYRQAPGKERELVAPISWSGGGTTYADSVKGRFTISRDNAKNTVYLLMNSLKPEDTAVYYCNAKGSVRDFQDTLRPEGDYWGQGTQVTVSS” as the sequence, how does the “polyreactivity (PSR sort gate)” value read?
A: low polyreactivity

Q: Which “polyreactivity (PSR sort gate)” value does the source give for “QVQLVESGGGLVQAGGSLRLSCAASGSTFDDNAMGWYRQAPGKERELVAVISSGGSTNYADSVKGRFTISRDNAKNTVYLQMNSLKPEDTAVYYCAAAKLTRRYRYGYWGQGTQVTVSS” here?
A: high polyreactivity

Q: Which “polyreactivity (PSR sort gate)” value does the source give for “QVQLVESGGGLVQAGGSLRLSCAASGSTFDDNDMGWYRQAPGKERELVAAISWSGGSTTYADSVKGRFTISRDYAKNTVYLQMNSLKPEDTAVYYCAADWYYWGFIFDYWGQGTQVTVSS” here?
A: high polyreactivity

Q: For “QVQLVESGGGLVQAGGSLRLSCAASGSTFDDYALGWYRQAPGKERELVAAISFSSGSTYYADSVKGRFTISRDNAKNTVYLQMNSLKPEDTAVYYCAAEKYGWTYYFSWQEDYWGQGTQVTVSS”, which “polyreactivity (PSR sort gate)” value is on record?
A: high polyreactivity

Q: For “QVQLVESGGGLVQAGGSLRLSCAASGSTFDDYAMGWYRPAPGKERELVAAISSDGSTNYADSVKGRFTISRDNAKNTVYLQMNSLKPEDTAVYYCAAESPWDWGYWFEALYDYWGQGTQVNVSS”, which “polyreactivity (PSR sort gate)” value is on record?
A: high polyreactivity

Q: Which “polyreactivity (PSR sort gate)” value does the source give for “QVQLVESGGGLVQAGGSLRLSCAASGSTFDDYAMGWYRQAPGKERELVAAISSSGGRTYYADSVKGRFTISRDNAKNTVYLQMNSLKPEDTAVYYCNADSYRSRGRYEFGRFDYWGQGTQVTVSS” here?
A: high polyreactivity

Q: With “QVQLVESGGGLVQAGGSLRLSCAASGSTFDDYAMVWYRQAPGKDREFVAAISFSGDSTYYADSVKGRFTISRDNAKNTVYLQMNRLKPEDTAVYYCAAEVPAEENGYAYDYWGQGTQVTVSS” as the sequence, how does the “polyreactivity (PSR sort gate)” value read?
A: low polyreactivity

Q: For “QVQLVESGGGLVQAGGSLRLSCAASGSTFDENAMGWYRQAPGKERELVAGITTNGGSTSYADSVKGRFTISRDNAKNTVYLQMNSLKPEDTAVYYCAKGLYVQFDYWGQGSQVTVSS”, which “polyreactivity (PSR sort gate)” value is on record?
A: low polyreactivity

Q: Which “polyreactivity (PSR sort gate)” value does the source give for “QVQLVESGGGLVQAGGSLRLSCAASGSTFDFNAMGWYRQAPWKEMELVADITRDGSTNYADSVKGRFTISRDNAKNTVYLQMNSLNPEDTAVYYCNAANRPGISGITTQGYYWGQGTQVTVSA” here?
A: low polyreactivity

Q: Which “polyreactivity (PSR sort gate)” value does the source give for “QVQLVESGGGLVQAGGSLRLSCAASGSTFDFNVMGWYRQAPGKERELVAAISSGSSTYYADSVKGRFTISRDNAKNTVYLQMNSLKPEDTAVYYCARRYQLVRTRYYYWGQGTQVTVSS” here?
A: high polyreactivity

Q: Which “polyreactivity (PSR sort gate)” value does the source give for “QVQLVESGGGLVQAGGSLRLSCAASGSTFDGYAMGWYRQAPGKERELVAAISYSGSSTYYADSVKGRFTISGDNAKNTVYLQMNSLKPEDTAVVYCAVDDTHPFGPDGGGDYWGQGTQVTVSS” here?
A: low polyreactivity

Q: Which “polyreactivity (PSR sort gate)” value does the source give for “QVQLVESGGGLVQAGGSLRLSCAASGSTFDHNAMGWYRQAPGKEREFVAAISARGGITYYADSVKGRFTISRDNAKNTVYLQMNSLKPEDTAVYYCADVFGDYWSSQWSYAYGYWGLGTQVTVSS” here?
A: high polyreactivity

Q: Which “polyreactivity (PSR sort gate)” value does the source give for “QVQLVESGGGLVQAGGSLRLSCAASGSTFDHNVMGWYRQAPGKERELVAAISGSGGSTYYADSVKGRFTISRDNAKNTVYLQMNSLKPEDTAVYYCAARYYVGHRGYYSWGQGTQVTVSS” here?
A: high polyreactivity

Q: With “QVQLVESGGGLVQAGGSLRLSCAASGSTFDHYDMGWSIPAPGKERELVAAISYSGSTTVYADSVKGRFTISRDNAMNTVYLQMNSLKPEDTAVYYCAASGDVIQSPMDYWGQGTQVTVSS” as the sequence, how does the “polyreactivity (PSR sort gate)” value read?
A: low polyreactivity

Q: For “QVQLVESGGGLVQAGGSLRLSCAASGSTFDINAMGWYRQAPGKERELVAAITWRSGRTYYADSVKGRFTISRDNAKNNVYLQMNSLKPEDTAVYYCAADDTSYYIYSYDYWGQGTQVTVSS”, which “polyreactivity (PSR sort gate)” value is on record?
A: low polyreactivity

Q: Which “polyreactivity (PSR sort gate)” value does the source give for “QVQLVESGGGLVQAGGSLRLSCAASGSTFDINVMGWYRQAPGKERELVAAITWSGGRTYYADSVKGRFTISRDNAKNTVYLQMNSLKPEDTAVYYCAARVGRGVYRYVPREFDYWGQGTQVTVSS” here?
A: high polyreactivity

Q: With “QVQLVESGGGLVQAGGSLRLSCAASGSTFDIYAMGWYRQAPGKERELVAVISGGDGSTYYADSVKGRFTISRDNAKNTVYLQMNSLKPEDTAVYYCAADYISPGYCDGEYDCWGQGTQVTVSS” as the sequence, how does the “polyreactivity (PSR sort gate)” value read?
A: low polyreactivity

Q: For “QVQLVESGGGLVQAGGSLRLSCAASGSTFDIYAMGWYRQAPGKERKLVAVISGGDGSTYYADSVKGRFTISRDNAKNTVYLQMNSLKPEDTAVYYCEYDYWGQGTQVTVSS”, which “polyreactivity (PSR sort gate)” value is on record?
A: low polyreactivity

Q: Which “polyreactivity (PSR sort gate)” value does the source give for “QVQLVESGGGLVQAGGSLRLSCAASGSTFDIYVMGWYRQAPGKERELVAAISRVGNTSYADSVKGRFTISRDNAKNTVYLQMNRLNPEDTAVYYCAADRADFFVIRTIDPYDYWGQGTQVTVSS” here?
A: low polyreactivity

Q: For “QVQLVESGGGLVQAGGSLRLSCAASGSTFDLYAMGWYRQATGKERELVAAISRSGGSTYYADSVKGRFTISRDNEKNTVYLQMNSLKPDDTAVYYCNARWPLGVSRGGMGYWGQGTQVTVSS”, which “polyreactivity (PSR sort gate)” value is on record?
A: high polyreactivity

Q: Which “polyreactivity (PSR sort gate)” value does the source give for “QVQLVESGGGLVQAGGSLRLSCAASGSTFDPNAKGWYRQEPGKERELVAAISKSGGRTYYADSVKGRFTISRDNAKNTVYLQMNSLKPEDTAVYYCNARFGSRYNFFGLRYNYWGLGTQVTVSS” here?
A: high polyreactivity

Q: Which “polyreactivity (PSR sort gate)” value does the source give for “QVQLVESGGGLVQAGGSLRLSCAASGSTFDPYAMGWYRQAPGIERELVAAITGRGGSTYYADSVKGRFTISRDNAKNTVYLQMNSLKPEDTAVYYCNAEGDKRRDRYDYWGQGSQVTVSS” here?
A: low polyreactivity

Q: For “QVQLVESGGGLVQAGGSLRLSCAASGSTFDRNAMGWYRQAPGKERELVASITWTGGSTYYADSVKGRFTISRDNAKNTVYLQMNSLKPEDTAVYYCNADLLYLDYLYGLDYWGQGTQVTVSS”, which “polyreactivity (PSR sort gate)” value is on record?
A: high polyreactivity

Q: With “QVQLVESGGGLVQAGGSLRLSCAASGSTFDRNVMGWYRQAPGKERELVAAISRVSSTNYADSVKGRFTISRDNAKNTVYLQMISLKPEDTAVYYCAVDNISNWAVENDYWGQGTQVTVSS” as the sequence, how does the “polyreactivity (PSR sort gate)” value read?
A: low polyreactivity

Q: With “QVQLVESGGGLVQAGGSLRLSCAASGSTFDRYAMGWYRQAPGKERELVASISRSGGNTYYADSVKGRFTISRDNAKNTVYVPMNSLKPDDTAGYYSNKPIGRYSRNRYGYWGQATQVTVSS” as the sequence, how does the “polyreactivity (PSR sort gate)” value read?
A: high polyreactivity

Q: Which “polyreactivity (PSR sort gate)” value does the source give for “QVQLVESGGGLVQAGGSLRLSCAASGSTFDRYGMGWYRQAPGKERELVAAISWSGGSTYYADSVKGRFTFSRDNAKNTVYLQMNSLKPEDTAVYYCNAVLYRFAYNYWGQGTQVTVSS” here?
A: low polyreactivity

Q: Which “polyreactivity (PSR sort gate)” value does the source give for “QVQLVESGGGLVQAGGSLRLSCAASGSTFDRYTMGWYRQAPGKERELVAAISESDGSTYYADSVKGRFTISRDNAKNTVYLLMNSLKPEDTAVYFCAAEWTHYWWYQYDFWGQGTQVTVSS” here?
A: high polyreactivity

Q: With “QVQLVESGGGLVQAGGSLRLSCAASGSTFDSNTMGWYRQAPGKERELVAAITVSGGSTHYADSVKGRFTNSRYNAKNTVYLQMNSLKPEDTAVYYCNRRSYGYGAFSGYDYWGQGTQVTVSS” as the sequence, how does the “polyreactivity (PSR sort gate)” value read?
A: low polyreactivity

Q: For “QVQLVESGGGLVQAGGSLRLSCAASGSTFDSYAIGWYRQAPGKERELVAGISIVGSTNYADSVKGRFTISPDNAKNTVYLQLNSLKPEDTAVYYCNAGYFRGSNAIKVRLTYDHWGQGTQVTVSS”, which “polyreactivity (PSR sort gate)” value is on record?
A: low polyreactivity

Q: For “QVQLVESGGGLVQAGGSLRLSCAASGSTFDSYAMGWYRQAPGKERELVAAISRSGGRTYYADSVKGRFTISRDNAKNTVYLQMNSLKPEDTAVYYCAAPVKVGHSLSGGDYWGQGTQVTVSS”, which “polyreactivity (PSR sort gate)” value is on record?
A: high polyreactivity
